From paper PMC8131916

Assays:
[1] = molecular target: MM_0014, cis-prenyltransferase from Methanosarcina mazei (tag-free) (Methanosarcina mazei); assay: crystal structure; MM_0014 cocrystallised with FPP and MgCl2 (co-FG), Index No. 89 reagent with glycerol 3:1, 20 °C; space group P2_(1)2_(1)2_(1), eight protein molecules per asymmetric unit; the same crystals soaked with DMAPP
[2] = molecular target: MM_0014, cis-prenyltransferase from Methanosarcina mazei (tag-free) (Methanosarcina mazei); assay: crystal structure; substrate-free MM_0014, hanging drop, Index No. 64 reagent with glycerol 3:1, 25 °C; space group C222_(1), two protein molecules per asymmetric unit; the same crystals soaked with IPP or DMAPP

Substance: MM_0014, cis-prenyltransferase from Methanosarcina mazei (tag-free) (enzyme)
- stoichiometry N [1]: 2
- stoichiometry N [2]: 2
